# Like-named read-outs stand apart in the source and are kept apart here.
# B1: GST-Vps20(C) (domain or fragment, S. cerevisiae, UniProt Q04272 101-221, looked up)
# chain: QFINGLKNGNEILKKLNKEFSNVDELMDDVQDQIAYQNEINETLSRSLVGTSNYEDDLDKELDALESELNPEKMNNAKVANMPSTEGLPSLPQGEQTEQKEREEFATEERSDTKEPLALLS
# B2: GST-Did2 (natural protein, S. cerevisiae, UniProt P69771 1-204, looked up)
# chain: MSRNSAAGLENTLFQLKFTSKQLQKQANKASKEEKQETNKLKRALNENEDISRIYASNAIRKKNERLQLLKLASRVDSVASRVQTAVTMRQVSASMGQVCKGMDKALQNMNLQQITMIMDKFEQQFEDLDTSVNVYEDMGVNSDAMLVDNDKVDELMSKVADENGMELKQSAKLDNVPEIKAKEVNVDDEKEDKLAQRLRALRG
# B3: GST-CT(Did2) (domain or fragment, S. cerevisiae, UniProt P69771 113-204, looked up)
# chain: QQITMIMDKFEQQFEDLDTSVNVYEDMGVNSDAMLVDNDKVDELMSKVADENGMELKQSAKLDNVPEIKAKEVNVDDEKEDKLAQRLRALRG
# B4: Ist1 (natural protein, S. cerevisiae, UniProt P53843 1-298, looked up)
# chain: MAPSMIPFTIKLKTCLKMCIQRLRYAQEKQQAIAKQSRRQVAQLLLTNKEQKAHYRVETLIHDDIHIELLEILELYCELLLARVQVINDISTEEQLVKEHMDDGINEAIRSLIYAILFVDEVKELSQLKDLMAWKINVEFVNGVIADHIDVPEKIIKKCSPSVPKEELVDLYLKEIAKTYDVPYSKLENSLSSSSSNISSDFSDPSGDIEDNDEEKPILALDNDDNDNADAKHPITVKKPRQNSENIKNELKIPKDIKKEVIEKKQSEKKTTKRKTKKEQENDELDELKKRFDALRRK
# What was measured:
# Assay in all cases: pull-down
# Vps4^E233Q [1] = biological target: T1, Vps4^E233Q (S. cerevisiae, UniProt P52917 1-437, E233Q)
# T1 sequence (looked up): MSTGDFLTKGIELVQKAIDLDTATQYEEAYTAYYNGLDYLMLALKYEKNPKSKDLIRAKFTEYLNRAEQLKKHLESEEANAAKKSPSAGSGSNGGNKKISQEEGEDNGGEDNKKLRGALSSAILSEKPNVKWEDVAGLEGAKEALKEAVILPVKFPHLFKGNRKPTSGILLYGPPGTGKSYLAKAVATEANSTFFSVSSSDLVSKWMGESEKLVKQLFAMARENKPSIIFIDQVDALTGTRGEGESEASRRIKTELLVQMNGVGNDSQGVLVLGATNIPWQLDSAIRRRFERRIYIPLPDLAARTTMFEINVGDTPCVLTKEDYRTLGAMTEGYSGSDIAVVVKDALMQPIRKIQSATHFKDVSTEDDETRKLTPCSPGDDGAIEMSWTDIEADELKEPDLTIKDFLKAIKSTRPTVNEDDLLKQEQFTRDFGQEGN
# Ist1 = biological target: B4
# Vps4^E233Q [2] = biological target: T1, Vps4^E233Q; remark: listed apart in the source
Binder,binding result (Ist1),further results
B1,,binding result (Vps4^E233Q [1]): binds
B2,binds,
B3,binds,
B4,,binding result (Vps4^E233Q [2]): binds

# — PMC2836958 (Molecular Biology of the Cell, 2010)
